# Values quoted from earlier work as cited in article PMC11276120.
# Key:
# [1] = biological target: PCNA (Saccharomyces cerevisiae) (UniProt P15873); assay: NMR
# PCNA (Homo sapiens) = PCNA (Homo sapiens) (UniProt P12004)
# Sequence of PCNA (Homo sapiens) (P12004 whole entry): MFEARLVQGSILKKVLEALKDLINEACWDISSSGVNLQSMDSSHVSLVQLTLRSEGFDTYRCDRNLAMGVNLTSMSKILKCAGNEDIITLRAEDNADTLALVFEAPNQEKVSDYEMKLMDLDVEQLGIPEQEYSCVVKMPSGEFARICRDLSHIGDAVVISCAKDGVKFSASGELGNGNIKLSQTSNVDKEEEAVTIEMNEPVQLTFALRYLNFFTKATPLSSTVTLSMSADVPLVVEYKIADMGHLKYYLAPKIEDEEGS
# Sequence of p21WAF1/CIP1 PIP-box (P38936 139-160): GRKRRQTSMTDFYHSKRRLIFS
# Sequence of PCNA (Saccharomyces cerevisiae) (P15873 whole entry): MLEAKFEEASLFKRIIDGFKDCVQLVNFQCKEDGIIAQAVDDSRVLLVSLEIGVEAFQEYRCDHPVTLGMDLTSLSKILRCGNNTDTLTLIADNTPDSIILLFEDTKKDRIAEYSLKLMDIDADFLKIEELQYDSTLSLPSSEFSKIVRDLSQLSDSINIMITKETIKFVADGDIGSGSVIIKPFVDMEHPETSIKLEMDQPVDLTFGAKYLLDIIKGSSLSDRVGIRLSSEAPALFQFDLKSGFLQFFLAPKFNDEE
# Sequence of Rev1 BRCT (P12689 158-252): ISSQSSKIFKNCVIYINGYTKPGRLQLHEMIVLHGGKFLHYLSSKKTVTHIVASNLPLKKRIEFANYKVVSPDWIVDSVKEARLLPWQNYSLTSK
Kd [1] [µM],Kd (PCNA (Homo sapiens)) [µM],Substance
79,,Rev1 BRCT (from UniProt P12689)
,0.08,p21WAF1/CIP1 PIP-box (from UniProt P38936)
